{
  "source": "patent US20250043019A1",
  "about": "(Janssen / Centocor, published 2025)",
  "key": {"[1]": {"target": "T1, human CD79b and CD20 co-expressed on the surface of B-lymphoma cell lines or primary B cells (human, UniProt P11836 1-297)", "T1 sequence 1": "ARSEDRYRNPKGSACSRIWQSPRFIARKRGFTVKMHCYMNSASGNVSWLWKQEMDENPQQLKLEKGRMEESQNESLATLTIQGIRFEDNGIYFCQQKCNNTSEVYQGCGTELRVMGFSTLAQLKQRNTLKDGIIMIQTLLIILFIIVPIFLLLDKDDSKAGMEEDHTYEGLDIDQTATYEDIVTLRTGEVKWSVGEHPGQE", "T1 sequence 2": "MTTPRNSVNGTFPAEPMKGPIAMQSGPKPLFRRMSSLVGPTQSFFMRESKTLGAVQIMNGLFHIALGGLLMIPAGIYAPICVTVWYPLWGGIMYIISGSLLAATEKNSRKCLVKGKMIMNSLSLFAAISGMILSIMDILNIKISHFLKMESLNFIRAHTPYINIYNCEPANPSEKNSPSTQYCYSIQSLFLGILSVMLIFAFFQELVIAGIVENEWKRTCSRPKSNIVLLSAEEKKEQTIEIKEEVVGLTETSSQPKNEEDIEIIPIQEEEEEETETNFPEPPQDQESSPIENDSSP", "assay": "cell-based or functional assay"}, "[2]": {"target": "T1, human CD79b and CD20 co-expressed on …", "assay": "cell-based or functional assay", "remark": "listed apart in the source"}, "[3]": {"target": "T1, human CD79b and CD20 co-expressed on …", "assay": "cell-based or functional assay", "remark": "listed apart in the source"}, "[4]": {"target": "T1, human CD79b and CD20 co-expressed on …", "assay": "cell-based or functional assay", "remark": "listed apart in the source"}, "[5]": {"target": "T1, human CD79b and CD20 co-expressed on …", "assay": "cell-based or functional assay", "remark": "listed apart in the source"}, "[6]": {"target": "T2, cynomolgus monkey CD79b antigen (cynomolgus monkey)", "T2 construct": "also called cyno CD79b; CD9W1.001", "assay": "SPR Biacore 8k, cyno CD79b injected up to 3000 nM", "method": "(§1) General Protocol for SPR Affinity Assessment: Affinity assessment of the bispecific trispecific constructs against human CD79b were measure using recombinantly expressed extracellular domain of CD79b short and long isoforms (CD9W7.001 and CD9W8.001, respectively) by Surface Plasmon Resonance (SPR) using a Biacore 8k SPR system (Biacore) at 25° C. in HBSP+ buffer. Cross-reactivity of the same antibody panel was also assessed against cyno and mouse antigens (CD9W1.001 and CD9W105.001, respectively). Briefly, a C1 sensor chip was immobilized with anti-human Fc (target immobilization levels of >400 RU) using vendor recommended amino coupling protocol. […] The association and dissociation phases were measured for 2 or 3 minutes and 30 minutes, respectively.\n(§2) The raw binding sensorgrams were processed using Biacore Insight software (Biacore) by double-referencing and the processed sensorgrams were analyzed for cross-reactivity and fitted to a 1:1 Langmuir model to obtain on-rates, off-rates and affinities."}, "[7]": {"target": "T3, recombinant extracellular domain of human CD79b, short isoform (human, UniProt P40259 29-159)", "T3 chain": "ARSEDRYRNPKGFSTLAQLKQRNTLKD", "assay": "SPR Biacore 8k, antibody captured by anti-Fc, 25 C", "method": "as §1, §2"}, "[8]": {"target": "T4, recombinant extracellular domain of human CD79b, long isoform (human, UniProt P40259 29-159)", "T4 construct": "also called hu CD79b long", "T4 sequence": "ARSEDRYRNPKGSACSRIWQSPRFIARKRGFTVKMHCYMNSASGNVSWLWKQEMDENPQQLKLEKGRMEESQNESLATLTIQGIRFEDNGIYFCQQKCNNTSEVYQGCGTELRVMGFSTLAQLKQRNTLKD", "assay": "SPR Biacore 8k, antibody captured by anti-Fc, 25 C", "method": "as §1, §2"}, "[9]": {"target": "T1, human CD79b and CD20 co-expressed on …", "assay": "flow cytometry, HBL-1 cells (CD79b+ CD20+), 1 h 37 C", "method": "(§3) All cells were washed with BD stain buffer (BD Biosciences; Cat #554657), centrifuged at 1200 RPM for 3 minutes, with supernatant discarded. Cells were then stained for 20 minutes at 4° C. with BD stain buffer containing AlexaFluor 647 labeled anti-human IgG secondary antibody (Jackson Immuno; Cat #109-606-098) at a 1:200 dilution along with Aqua Fixable Live/Dead stain (Invitrogen; Cat #L34957) at a 1:400 dilution. All cells were washed with BD stain buffer (BD Biosciences; Cat #554657), centrifuged at 1200 RPM for 3 mins, with supernatant discarded. Cells were analyzed using Intellicyt (Sartorius) flow cytometer and mean fluorescent intensity (MFI) was generated using Forcyt software (Sartorius). MFI was graphed and EC50 values generated using GraphPad PRISM v.8. Dose response curves were generated by transforming the x axis values using the formula […]. Data was then graphed using non-linear regression curve fit analysis “log(agonist) vs. response-variable slope (four parameter)”."}, "[10]": {"target": "T1, human CD79b and CD20 co-expressed on …", "assay": "flow cytometry, Carnaval cells (CD79b+ CD20+), 1 h 37 C", "method": "as §3"}, "[11]": {"target": "T1, human CD79b and CD20 co-expressed on …", "assay": "flow cytometry, OCI-LY10 cells (CD79b+ CD20+), 1 h 37 C", "method": "as §3"}},
  "data": [
    {"binder": "C923B99 CD79bxCD20xCD3 trispecific antibody (other, Trispecific IgG1; also called CD9B643 / CD3B2030-N106A-scFv-LH-C20B22) heavy: QVQLQESGPGLVKPSQTLSLTCTVSGVSISNYYWSWIRQPPGKGLEWIGRISPSGRTNYNPSLKSRVTMSLDASKNQFSLKLSSVTAADTAVYYCARGEYSGTYSYSFDIWGQGTMVTVSSASTKGPSVFPLAPSSKSTSGGTAALGCLVKDYFPEPVTVSWNSGALTSGVHTFPAVLQSSGLYSLSSVVTVPSSSLGTQTYICNVNHKPSNTKVDKKVEPKSCDKTHTCPPCPAPEAAGGPSVFLFPPKPKDTLMISRTPEVTCVVVSVSHEDPEVKFNWYVDGVEVHNAKTKPREEQYNSTYRVVSVLTVLHQDWLNGKEYKCKVSNKALPAPIEKTISKAKGQPREPQVYTLPPSREEMTKNQVSLSCAVKGFYPSDIAVEWESNGQPENNYKTTPPVLDSDGSFFLVSKLTVDKSRWQQGNVFSCSVMHEALHNRFTQKSLSLSPGK light: DIQMTQSPSSLSASVGDRVTITCRSSQSLFDSDDGNTYLDWFQQKPGQSPKLLIQTLSYRASGVPSRFSGSGSGTDFTLTISSLQPEDFATYYCMQRMEFPLTFGGGTKVEIKRTVAAPSVFIFPPSDEQLKSGTASVVCLLNNFYPREAKVQWKVDNALQSGNSQESVTEQDSKDSTYSLSSTLTLSKADYEKHKVYACEVTHQGLSSPVTKSFNRGEC EIVLTQSPATLSASPGERVTLSCSASSSVSYMNWYQQKPGQAPRRWIYDSSKLASGVPARFSGSGSGRDYTLTISSLEPEDFAVYYCQQWSRNPPTFGGGTKVEIKGGSEGKSSGSGSESKSTGGSQVQLVQSGAEVKKPGSSVKVSCKASGYTFTRSTMHWVKQAPGQGLEWIGYINPSSAYTNYNQKFQGRVTLTADKSTSTAYMELSSLRSEDTAVYYCASPQVHYDYAGFPYWGQGTLVTVSSEPKSSDKTHTCPPCPAPEAAGGPSVFLFPPKPKDTLMISRTPEVTCVVVSVSHEDPEVKFNWYVDGVEVHNAKTKPREEQYNSTYRVVSVLTVLHQDWLNGKEYKCKVSNKALPAPIEKTISKAKGQPREPQVYTLPPSREEMTKNQVSLWCLVKGFYPSDIAVEWESNGQPENNYKTTPPVLDSDGSFFLYSKLTVDKSRWQQGNVFSCSVMHEALHNHYTQKSLSLSPGKGGSEGKSSGSGSESKSTGGSAIQLTQSPSSLSASVGDRVTITCRASSSVSYIHWFQQKPGKAPKPLIYATSNLASGVPSRFSGSGSGTDFTLTISSLQPEDFATYYCQQWTSNPPTFGQGTKLEIKGGSEGKSSGSGSESKSTGGSQVQLVQSGAEVKKPGSSVKVSCKASGYTFTSYNMHWVRQAPGQGLEWMGAIYPGNGDTSYAQKFQGRVTITADKSTSTAYMELSSLRSEDTAVYYCARSTYYGGDWYFNVWGQGTLVTVSS", "values": [
      {"measurement": "IC50, T-cell killing of HBL-1 (Incucyte)", "setting": "[1]", "result": 0.0692, "unit": "nM"},
      {"measurement": "IC50, T-cell killing of OCI-Ly10 (Incucyte)", "setting": "[2]", "result": 5.6, "unit": "nM"},
      {"measurement": "IC50, CARNAVAL killing (Incucyte)", "setting": "[3]", "result": 0.285, "unit": "nM"},
      {"measurement": "IC50, CARNAVAL killing, 72 h (FACS)", "setting": "[4]", "result": 0.17, "unit": "nM"},
      {"measurement": "IC50, HBL-1 killing, 72 h (FACS)", "setting": "[4]", "result": 1.68, "unit": "nM"},
      {"measurement": "IC50, OCI-LY10 killing, 72 h (FACS)", "setting": "[4]", "result": 16.9, "unit": "nM"},
      {"measurement": "Cmax (maximum cytotoxicity), donor 1", "setting": "[5]", "result": 35, "unit": "%"},
      {"measurement": "Cmax (maximum cytotoxicity), donor 2", "setting": "[5]", "result": 67, "unit": "%"},
      {"measurement": "Cmax (maximum cytotoxicity), donor 3", "setting": "[5]", "result": 66, "unit": "%"},
      {"measurement": "EC50, autologous B-cell depletion, donor 2", "setting": "[5]", "result": 9, "unit": "nM"},
      {"measurement": "EC50, autologous B-cell depletion, donor 3", "setting": "[5]", "result": 23, "unit": "nM"},
      {"measurement": "Kd", "setting": "[6]", "result": "> 3000", "unit": "nM"},
      {"measurement": "Kd", "setting": "[7]", "result": 0.27, "unit": "nM"},
      {"measurement": "Kd", "setting": "[8]", "result": 0.04, "unit": "nM"},
      {"measurement": "EC50", "setting": "[9]", "result": 8, "unit": "nM"},
      {"measurement": "EC50", "setting": "[10]", "result": 6, "unit": "nM"},
      {"measurement": "EC50", "setting": "[11]", "result": 2, "unit": "nM"}
    ]}
  ]
}
